From PMC9496542

How the values were obtained:
Experiment in all cases: NMR
Conditions in all cases: 298 K, 150 mM NaCl, 20 mM HEPES, 1 mM TCEP (working buffer), apo (no Ni(II)), intrinsically disordered, Cys394 reduced
[1] = molecular target: His345 (UniProt position 345, …)
[2] = molecular target: His371 (UniProt position 371, …)
[3] = molecular target: His355 (UniProt position 355, …)
[4] = molecular target: His365 (UniProt position 365, …)

B1: N-myc downstream-regulated gene 1 protein, C-terminal intrinsically disordered region (hNDRG1*C) (Homo sapiens) (protein)
chain: GMGYMPSASMTRLMRSRTASGSSVTSLDGTRSRSHTSEGTRSRSHTSEGTRSRSHTSEGAHLDITPNSGAAGNSAGPKSMEVSC
[1]
  pKa: 6.65
[2]
  pKa: 6.84
[3]
  pKa: 6.65
[4]
  pKa: 6.72
